Results on one molecule are retold here after patent US20240100174A1, “PROTEIN-PEG INTERACTIONS THAT REDIRECT THE THERMAL UNFOLDING PATHWAY OF PEGYLATED HUMAN GALECTIN-3C” (UNIVERSITY OF FLORIDA RESEARCH FOUNDATION, INCORPORATED, priority 2022, published 2024).

Data set [1] can be described thus: Equilibrium binding of LacNac, intrinsic tryptophan fluorescence. The conditions noted are these: ligand LacNac; average ± standard deviation of 3 replicated experiments; PBS; read-out: Kd (equilibrium binding constant). The protocol: Equilibrium binding data were recorded using a protocol adapted from a previous procedure from Restuccia, et al (38). Intrinsic tryptophan fluorescence was monitored using a Cary Eclipse™ Fluorescence Spectrophotometer (Agilent) operating with Cary Eclipse™ WinFLR software version 1.2 in ‘Scan Mode’. The instrument method parameters were as follows: excitation wavelength was 280 nm, the acquisition range was from 290 nm to 440 nm and the photomultiplier tube sensitivity was set to ‘medium’. Samples were prepared at final concentrations of 1 μM for Gal3C[T243C] or 5 μM Gal3C[T243C]-PEG in 800 ∥L, in PBS for each titration. Samples were pipetted into 0.7×0.7 cm quartz cuvettes with a micro stir bar. Each new experiment was first zeroed against PBS to remove the small background signal from the buffer. […]
The binding affinity and specificity of Gal3C[T243C]-PEG was compared with Gal3C[T243C] and Gal3C (see FIG. 1C, FIG. 9 and FIG. 10) via an inherent tryptophan fluorescence assay optimized to ensure equilibrium binding conditions. Binding of lactose or LacNac quenches the fluorescence of W181, located adjacent to the bound sugar in the crystal structure of Gal3C, thus permitting direct measurement of ligand Kd values. […]

The nature of data set [2]: Rotational correlation time from 15N T1/T2 NMR relaxation. It is filed as physicochemical. The conditions noted are these: 30° C.; error is 95% confidence interval. The protocol: NMR data were recorded for temperatures between 30° C. and 55° C., as noted in the main text, with a Broker Avance™ III spectrometer operating at 800 MHz, running Topspin™ version 3.6.3 and equipped with a 5 mm TXI cryoprobe. The temperature was calibrated using a standard sample of 4% methanol in d4-MeOH. 2D [^15N, ^1H]-HSQC spectra were recorded using a gradient sensitivity-enhanced pulse sequence (hsqcetf3gpsi) with 2048 points in the direct dimension, between 180 to 260 points in the indirect dimension and between 32 to 736 scans per experiment, depending on the final sample concentration to achieve similar signal-to-noise ratios for all data. The ^15N T1 and T2 relaxation measurements were acquired with 1D ^15N-edited HSQC-based experiments (hsqct1etf3gpsi3d and hsqct2etf3gpsi3d) with 2048 points and 512 scans per experiment. For T1 measurements, experiments were recorded with relaxation delays of 0.02, 0.05, 0.1, 0.2, 0.3, 0.4, 0.6, 0.8,1, 1.2 or 1.5 s. […]
The rotational correlation times τc of Gal3C[T243C] and Gal3C[T243C]-PEG was then determined from T1 and T2 using the following spectral density function (j(ω)) equations […]
To investigate whether PEG and Gal3C[T243C] behaved more as two independent domains within the conjugated protein or if they interacted more closely, the rotational correlation times (τc) for Gal3C[T243C] and Gal3C[T243C]-PEG at 30° C. were determined. […]

B1: Gal3C[T243C]: Gal3C variant with a single extrinsic cysteine at position 243; SEQ ID NO: 11 (protein)
chain: MAGPLIVPYNLPLPGGVVPRMLITILGTVKPNANRIALDFQRGNDVAFHFNPRFNENNRRVIVCNTKLDNNWGREERQSVFPFESGKPFKIQVLVEPDHFKVAVNDAHLLQYNHRVKKLNEISKLGISGDIDLTSASYCMILEHHHHHH
By Kd is commonly meant the equilibrium constant for the complex coming apart. Take B1: in data set [1], the dissociation constant Kd is 230 ± 56.5 µM. Moreover, the “rotational correlation time (τc)” value in data set [2] is given as 10.7 (±0.7) ns.
